# Measured values published in PMC3878821.
# Changes are numbered by the printed parent chain. Numbers in names are those of the source.
# B1: ROS1 kinase domain G2032R mutant (Homo sapiens; G2032R) (protein)
# chain: IENLPAFPREKLTLRLLLGSGAFGEVYEGTAVDILGVGSGEIKVAVKTLKKGSTDQEKIEFLKEAHLMSKFNHPNILKQLGVCLLNEPQYIILELMEGRDLLTYLRKARMATFYGPLLTLVDLVDLCVDISKGCVYLERMHFIHRDLAARNCLVSVKDYTSPRIVKIGDFGLARDIYKNDYYRKRGEGLLPVRWMAPESLMDGIFTTQSDVWSFGILIWEILTLGHQPYPAHSNLDVLNYVQTGGRLEPPRNCPDDLWNLMTQCWAQEPDQRPTFHRIQDQLQLFRNFFLNSIYKSRDE
# B2: ROS1 kinase domain (nonmutant) (Homo sapiens) (protein)
# chain: B1 chain with R99G
# Substrate: Nc1ncnc2c1ncn2[C@@H]1O[C@H](COP(=O)(O)OP(=O)(O)OP(=O)(O)O)[C@@H](O)[C@H]1O
# Experiment: in vitro enzymatic assay, Km app for ATP
# Type: biochemical, Homo sapiens
# Conditions: ATP-binding site
row,Protein,Km
1,B1,22 µM
2,B2,65 µM
